Laboratory results taken from article PMC3064480.

What was measured:
[1] = molecular target: Recombinant human TβRI-ED (residues 1-101) (human); assay: ELISA
[2] = molecular target: Recombinant human TβRII-ED (residues 1-137) (human); assay: ELISA
Sequence of Recombinant human TβRII-ED (residues 1-137) (human) (P37173 whole entry, the tested form may be a part): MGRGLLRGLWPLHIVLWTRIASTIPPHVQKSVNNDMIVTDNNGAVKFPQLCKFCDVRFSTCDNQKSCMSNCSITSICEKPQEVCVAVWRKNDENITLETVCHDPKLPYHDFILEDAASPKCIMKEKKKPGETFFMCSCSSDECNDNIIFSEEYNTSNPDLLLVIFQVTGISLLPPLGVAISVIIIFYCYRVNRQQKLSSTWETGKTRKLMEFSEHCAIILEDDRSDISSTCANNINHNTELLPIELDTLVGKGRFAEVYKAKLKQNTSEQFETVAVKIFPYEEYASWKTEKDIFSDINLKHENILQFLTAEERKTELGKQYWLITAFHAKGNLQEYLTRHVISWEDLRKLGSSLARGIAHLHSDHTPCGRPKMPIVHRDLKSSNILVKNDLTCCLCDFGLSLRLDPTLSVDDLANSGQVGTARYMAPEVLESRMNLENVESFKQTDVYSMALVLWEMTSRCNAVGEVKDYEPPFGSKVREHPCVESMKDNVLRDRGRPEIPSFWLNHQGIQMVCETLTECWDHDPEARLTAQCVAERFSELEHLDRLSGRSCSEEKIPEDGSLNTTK

Row | Binder | Kd [1] [µM] | IC50 [2] [µM] | Kd [2] [µM] | IC50 [1] [µM]
1 | LTGKNFPMFHRN [phage clone 1 (M13 phage displaying … on the N-terminus of the PIII protein)] | 0.0001 |  |  | 
2 | MHRMPSFLPTTL [Pep2 (synthetic peptide …)] | 10 | 274 | 10 | 256
3 | LTGKNFPMFHRN [Pep1 (synthetic peptide …)] | 10 | 156 | 10 | 110
4 | MHRMPSFLPTTL [phage clone 2 (M13 phage displaying … on the N-terminus of the PIII protein)] | 0.0001 |  |  | 
